Measurements: KR20200019669A (dated 2020)

Biological target: T1, his 태그가 부착된 재조합 인간 CD38 (recombinant human CD38 extracellular domain, His-tagged) (human, UniProt P28907 43-300, biotinylated in part of the ForteBio assays (EZ-Link sulfo-NHS biotinylation))
T1 construct: Bought from Sino Biological; also called rhCD38; rhCD38-his; not shown: histidine tag
T1 sequence: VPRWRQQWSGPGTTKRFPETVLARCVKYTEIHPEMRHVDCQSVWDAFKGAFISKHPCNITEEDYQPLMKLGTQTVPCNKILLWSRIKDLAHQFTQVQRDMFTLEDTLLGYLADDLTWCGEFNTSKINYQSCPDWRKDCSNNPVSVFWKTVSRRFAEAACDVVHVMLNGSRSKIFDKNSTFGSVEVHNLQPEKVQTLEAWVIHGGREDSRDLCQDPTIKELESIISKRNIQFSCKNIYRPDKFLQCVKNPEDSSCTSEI
Test: affinity on recombinant human CD38 extracellular domain (Octet/Biacore); order of magnitude told in text

- Kd: ~1 nM
B1: aCD38-b-329 (antibody, human IgG1, V domains shown)
VH: QLQLQESGPGLVKPSETLSLTCTVSGGSISSSDYYWGWIRQPPGKGLEWIGSIYYSGSTYYNPSLKSRVTISVDTSKNQFSLKLSSVTAADTAVYYCARGQYSSGWYAYPFDMWGQGTMVTVSS
VL: EIVLTQSPGTLSLSPGERATLSCRASQSVRSSYLAWYQQKPGQAPRLLIYGASSRATGIPDRFSGSGSGTDFTLTISRLEPEDFAVYYCQQDGAVFTFGGGTKVEIK
notes: Human IgG1 with kappa constant region (P01857, P01834)
